Several values for one entry are separate records, joined by “and”; a condition that tells them apart may be missing. Equal values may be shown once.
Key:
[1] = molecular target: SARS-CoV-2 spike protein S2 (SARS-CoV-2); experiment: ITC
[2] = molecular target: SARS-CoV-2 spike protein S1 (SARS-CoV-2); experiment: ITC

truncated canavalin (from UniProt P10562 242-445) (domain or fragment)
Kd [1]: 10 µM and 80 µM | dH [1]: -0.8 kcal/mol | Kd [2]: 20 µM and 100 µM | dH [2]: -6 kcal/mol and -7 kcal/mol

From publication PMC8849053
